In PMC10426277 (European journal of pharmacology, 2023):

Columns and labels:
Assay in all cases: SPR
[1] = molecular target: T1, Peroxiredoxin 1 wildtype, recombinant full-length (human, UniProt Q06830 1-199)
T1 sequence (looked up): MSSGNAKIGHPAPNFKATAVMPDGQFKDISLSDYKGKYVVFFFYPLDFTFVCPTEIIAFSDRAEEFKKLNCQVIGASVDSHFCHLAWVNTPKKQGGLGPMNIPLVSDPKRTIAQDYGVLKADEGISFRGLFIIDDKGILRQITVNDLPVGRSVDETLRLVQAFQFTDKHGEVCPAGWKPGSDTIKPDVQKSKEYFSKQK

[2] = molecular target: T2, Peroxiredoxin 1 mutant, last 22 amino acids of the C-terminus deleted (human, UniProt Q06830 1-177)
T2 sequence (looked up): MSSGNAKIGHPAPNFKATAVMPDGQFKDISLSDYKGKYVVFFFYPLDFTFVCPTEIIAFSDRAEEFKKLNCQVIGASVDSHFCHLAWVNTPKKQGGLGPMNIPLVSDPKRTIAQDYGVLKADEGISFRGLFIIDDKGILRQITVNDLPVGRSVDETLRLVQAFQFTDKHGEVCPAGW

[3] = molecular target: T3, Peroxiredoxin 4 mutant, C-terminal 22 amino acids deleted (human, UniProt Q13162 38-249)
T3 sequence (looked up): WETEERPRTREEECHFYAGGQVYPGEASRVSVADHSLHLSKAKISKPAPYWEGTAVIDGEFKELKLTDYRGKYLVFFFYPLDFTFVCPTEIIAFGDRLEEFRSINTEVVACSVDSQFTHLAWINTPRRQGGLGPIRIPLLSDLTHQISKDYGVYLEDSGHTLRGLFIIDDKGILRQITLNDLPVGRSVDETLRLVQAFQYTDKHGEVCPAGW

- Kd [1]: 769 µM
- koff [1]: 0.000532 s⁻¹
- kon [1]: 0.693 M⁻¹ s⁻¹
- Kd [2]: 0.175 µM
- koff [2]: 0.000444 s⁻¹
- kon [2]: 2540 M⁻¹ s⁻¹
- Kd [3]: 29.7 µM
- koff [3]: 0.00269 s⁻¹
- kon [3]: 90.4 M⁻¹ s⁻¹
B1: Sulfiredoxin (Srx), recombinant full-length (enzyme)
chain: not shown
